Results published in patent publication US20140087995A1 (published 2014).
Numbered stars: 1 amine (or outer) side, 2 acyl side, 3 side chain; on linkers, the order of the positions; unused ones are H or OH. Bridge positions count the residues as written; N and C are the ends. Side chains are listed from the residue outwards. Ends that are not written are not given here. * marks the point of attachment. C20 diacid = O=C(O)CCCCCCCCCCCCCCCCCCC(=O)*; γGlu = O=C(O)[C@H](CCC(=O)[*:2])N[*:1]

T1: human amylin receptor (human, UniProt P30988 25-474; O60896 24-148, limits assumed)
T1 construct: whole, on cells; Calcitonin receptor plus RAMP-3 gives the amylin 3(a) receptor; membranes of Amylin 3(a)/CRE-luc cells were used; also called hAmylin-R; hAmylinR
T1 sequence (looked up) 1: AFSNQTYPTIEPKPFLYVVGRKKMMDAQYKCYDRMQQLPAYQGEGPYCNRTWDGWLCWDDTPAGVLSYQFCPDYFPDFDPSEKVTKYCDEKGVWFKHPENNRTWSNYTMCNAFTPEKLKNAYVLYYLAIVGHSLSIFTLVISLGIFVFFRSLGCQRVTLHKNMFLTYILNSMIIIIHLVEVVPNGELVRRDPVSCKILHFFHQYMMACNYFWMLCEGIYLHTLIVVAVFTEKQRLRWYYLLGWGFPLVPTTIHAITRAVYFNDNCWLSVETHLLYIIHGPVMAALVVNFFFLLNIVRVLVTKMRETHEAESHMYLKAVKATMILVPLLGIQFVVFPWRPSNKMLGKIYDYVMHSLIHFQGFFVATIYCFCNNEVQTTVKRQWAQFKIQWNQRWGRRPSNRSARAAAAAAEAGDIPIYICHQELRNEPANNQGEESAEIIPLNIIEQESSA
T1 sequence (looked up) 2: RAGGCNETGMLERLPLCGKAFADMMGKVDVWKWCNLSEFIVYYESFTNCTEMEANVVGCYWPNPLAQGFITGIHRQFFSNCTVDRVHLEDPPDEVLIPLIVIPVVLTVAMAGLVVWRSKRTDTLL

B1: N^ε1-[(4S)-4-carboxy-4-(19-carboxynonadecanoylamino)butanoyl]-[Glu14,Arg17,Pro21,Pro27,Pro34,Pro37]-h-amylin (peptide)
peptide: K([γGlu-C20 diacid])CNTATCATQRLAEFLRHSSPNFGAIPSSTNVGPNTP-NH2
modifications: disulfide 2-7; N-terminus assumed
SMILES: CC[C@H](C)[C@H](NC(=O)[C@H](C)NC(=O)CNC(=O)[C@H](Cc1ccccc1)NC(=O)[C@H](CC(N)=O)NC(=O)[C@@H]1CCCN1C(=O)[C@H](CO)NC(=O)[C@H](CO)NC(=O)[C@H](Cc1c[nH]cn1)NC(=O)[C@H](CCCNC(=N)N)NC(=O)[C@H](CC(C)C)NC(=O)[C@H](Cc1ccccc1)NC(=O)[C@H](CCC(=O)O)NC(=O)[C@H](C)NC(=O)[C@H](CC(C)C)NC(=O)[C@H](CCCNC(=N)N)NC(=O)[C@H](CCC(N)=O)NC(=O)[C@@H](NC(=O)[C@H](C)NC(=O)[C@@H]1CSSC[C@H](NC(=O)[C@@H](N)CCCCNC(=O)CC[C@H](NC(=O)CCCCCCCCCCCCCCCCCCC(=O)O)C(=O)O)C(=O)N[C@@H](CC(N)=O)C(=O)N[C@@H]([C@@H](C)O)C(=O)N[C@@H](C)C(=O)N[C@@H]([C@@H](C)O)C(=O)N1)[C@@H](C)O)C(=O)N1CCC[C@H]1C(=O)N[C@@H](CO)C(=O)N[C@@H](CO)C(=O)N[C@H](C(=O)N[C@@H](CC(N)=O)C(=O)N[C@H](C(=O)NCC(=O)N1CCC[C@H]1C(=O)N[C@@H](CC(N)=O)C(=O)N[C@H](C(=O)N1CCC[C@H]1C(N)=O)[C@@H](C)O)C(C)C)[C@@H](C)O
notes: also called 14E, 17R, 21P, 27P, 34P, 37P
B2: N^ε1-[(4S)-4-carboxy-4-(19-carboxynonadecanoylamino)butanoyl]-[His14,Arg17,Pro21,Pro27,His34]-h-amylin (peptide)
peptide: K([γGlu-C20 diacid])CNTATCATQRLAHFLRHSSPNFGAIPSSTNVGHNTY-NH2
modifications: disulfide 2-7; N-terminus assumed
SMILES: CC[C@H](C)[C@H](NC(=O)[C@H](C)NC(=O)CNC(=O)[C@H](Cc1ccccc1)NC(=O)[C@H](CC(N)=O)NC(=O)[C@@H]1CCCN1C(=O)[C@H](CO)NC(=O)[C@H](CO)NC(=O)[C@H](Cc1c[nH]cn1)NC(=O)[C@H](CCCNC(=N)N)NC(=O)[C@H](CC(C)C)NC(=O)[C@H](Cc1ccccc1)NC(=O)[C@H](Cc1c[nH]cn1)NC(=O)[C@H](C)NC(=O)[C@H](CC(C)C)NC(=O)[C@H](CCCNC(=N)N)NC(=O)[C@H](CCC(N)=O)NC(=O)[C@@H](NC(=O)[C@H](C)NC(=O)[C@@H]1CSSC[C@H](NC(=O)[C@@H](N)CCCCNC(=O)CC[C@H](NC(=O)CCCCCCCCCCCCCCCCCCC(=O)O)C(=O)O)C(=O)N[C@@H](CC(N)=O)C(=O)N[C@@H]([C@@H](C)O)C(=O)N[C@@H](C)C(=O)N[C@@H]([C@@H](C)O)C(=O)N1)[C@@H](C)O)C(=O)N1CCC[C@H]1C(=O)N[C@@H](CO)C(=O)N[C@@H](CO)C(=O)N[C@H](C(=O)N[C@@H](CC(N)=O)C(=O)N[C@H](C(=O)NCC(=O)N[C@@H](Cc1c[nH]cn1)C(=O)N[C@@H](CC(N)=O)C(=O)N[C@H](C(=O)N[C@@H](Cc1ccc(O)cc1)C(N)=O)[C@@H](C)O)C(C)C)[C@@H](C)O
notes: also called 14H, 17R, 21P, 27P, 34H

Target: T1, human amylin receptor
Test: SPA competition binding, displacement of 125I-rat amylin from membranes with human amylin 3(a) receptor (Assay V)
Summary of the method: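 SPA beads with BHK Amylin 3(a)/CRE-luc cell membranes (35 ng/μL final) in 50 mM Hepes pH 7.4, 1 mM CaCl2, 5 mM MgCl₂, 0.1% OA, 0.02% Tween20.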

Row | Binder | IC50 [nM]
1 | B1 | 0.214
2 | B2 | 0.271
